Several values for one entry are separate records, joined by “and”; a condition that tells them apart may be missing. Equal values may be shown once.
T1: AahII toxin of Androctonus australis hector (Androctonus australis hector, UniProt P01484 20-83)
T1 sequence: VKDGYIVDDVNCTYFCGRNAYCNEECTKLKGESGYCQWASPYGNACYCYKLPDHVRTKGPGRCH


How the values were obtained:
[1] = target: AahI' toxin of Androctonus australis hector (Androctonus australis hector) (UniProt P01479); assay: cell-based or functional assay
AahI' toxin of Androctonus australis hector (Androctonus australis hector), sequence (P01479 20-82): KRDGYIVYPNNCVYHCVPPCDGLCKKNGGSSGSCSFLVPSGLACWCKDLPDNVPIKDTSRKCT

[2] = target: T1, AahII toxin of Androctonus australis …; assay: cell-based or functional assay
[3] = target: T1, AahII toxin of Androctonus australis …; assay: SPR (BIAcore), AahII immobilised on CM5 chip, Nb in mobile phase

Binder	surviving mice; i.c.v.; 4 LD50 AahI'; ratio 1:2 (survivors of 4 mice) [1]	Survivors/Injected mice; i.c.v.; AahII:Nb 1:4; 3 LD50/mouse; 72 ng Nb/mouse [2]	Kd [3]	koff [3]	kon [3]	also measured
AahI'B2 (VHH) VHH: QVQLQESGGGSVQAGGSLRLSCVASEYSYRRNCMAWYRQAPGKEREGVARISTAYDITYYADSANGRFTISQDKAKKTVYLQMNSLKPEDSAMYYCSVSTGSDCYSMSLPRMDYWGKGTQVTVSS	4					
AahI'A19 (VHH) VHH: QVQLQESGGGSVQAGGSLRLSCVASEYSECIGWFRQAPGKEREGVAAIEKVLGQRWRADSIHDRITISQDKAKNTVYLQMTSLKIDDTAMYYCAAKGRGCMSQPTTGYLSWGQGTQVTVSS	4					
NbAahII12 (VHH, Purified from E. coli periplasm with His6; also called cluster I) VHH: QVQLVESGGGLVQPGGSLRLSCAASGFSFNIYAMSWVRQAPGKQFEWVSGIHPNGRSTYYTDSVKGRFTISRDNAKNTLYLQLDSLKTEDTAMYYCAKGVLTKYVGGARGQGTQVTVSS		2 survivors of 4 mice	0.28 nM	0.0016 s⁻¹	5.63e+06 M⁻¹ s⁻¹	NC = (LD50 with Nb - LD50 without Nb)/Nb; i.c.v.; AahII:Nb 1:4 [2]: 27000 LD50/mg and 400 LD50/nmol; Survivors/Injected mice; i.c.v.; AahII:Nb 1:4; 2 LD50/mouse; 48 ng Nb/mouse [2]: 3 survivors of 4 mice
NbAahII19 (VHH, Purified from E. coli periplasm with His6; also called cluster I) VHH: QVQLQESGGGLVQPGGSLRLSCAASGFSFNIYAMSWVRQAPGKQFEWVSGIHPDGRSTYYTDSVKGRFTISRDNAKNTLYLQLDSLKTEDTAMYYCAKGVLTKYVGSARGQGTQVTVSS		4 survivors of 4 mice	2.39 nM	0.013 s⁻¹	5.46e+06 M⁻¹ s⁻¹	Survivors/Injected mice; i.c.v.; AahII:Nb 1:4; 2 LD50/mouse; 48 ng Nb/mouse [2]: 4 survivors of 4 mice
AahI'A2 (VHH) VHH: QVQLQESGGGSVQAGGSLRLSCAASGFPASSYCMAWFRQAPGKEREGLAAIYNGGRRYYPDSLKGRFTIEDKAENTIYLEMNSLKPEDTATYYCAARSNQCWYATLQQSWYPYWGQGTQVTVSS	0					
AahI'A17 (VHH) VHH: QVQLQESGGGSVQDGGSLTLSCAASSSYVFNNLNMGWFRQAPGKECELVSTLFVNGITNYADSVKGRFTVSRDNAKNTVFLHMTNLSTEDTAVYYCAAPDVCSATRCGPACRGQGTQVTVSS	4					
AahI'C13 (VHH) VHH: QVQLQESGGGSVQPGGSLRLSCAASGYIYSRYCMGWFRQAPGKEREGVAVISGYGTTHFADSAKGRFTISQDKAKNMVYLQMNSLRPEDTAIYYCAVRQWDCYSANWPQTHTYDYWGQGTQVTVSS	2					
AahI'D10 (VHH) VHH: QVQLQESGGGSVQAGGSLRLSCAASVDTFSTTCMGWFRQTPGKEREGVAVIKTFYAGTVYADSVKGRFTISQDIAKNTVYLQMNSLNPEDTAMYYCAATGGPYNGRCPLASQPFRYWTQGTQVTVSS	3					
NbAahII17 (VHH, also called cluster D) VHH: DVQLVESGGGSVQAGGSLRLSCAASGVTLNNYCVGWFRQAPGKEREGVAAFKSGGSFTYYADSVKGRFTISKDNAKNTMYLQMNSLNSDDTAMYYCAVTRNSCLGLAKFRPSSYNYWGQGTQVTVSS			0.61 nM	0.00376 s⁻¹	6.12e+06 M⁻¹ s⁻¹	Survivors/Injected mice; i.c.v.; AahII:Nb 1:2; 2 LD50/mouse; 24 ng Nb/mouse [2]: 0 survivors of 4 mice
NbAahII05 (VHH, also called cluster G) VHH: QVQLQESGGGSVQAGGSLRLSCAASGYTCTKFNMGWYRQAPGKQREFVASIRRDSTIYYGDSVKGRFTISQDNAKNMVYLQMTSLKPEDSAMYYCSTRCLTSSVPYWGQGTQVTVSS		4 survivors of 4 mice	0.67 nM	0.00186 s⁻¹	2.77e+06 M⁻¹ s⁻¹	Survivors/Injected mice; i.c.v.; AahII:Nb 1:2; 2 LD50/mouse; 24 ng Nb/mouse [2]: 4 survivors of 4 mice; Survivors/Injected mice; i.c.v.; AahII:Nb 1:2; 3 LD50/mouse; 36 ng Nb/mouse [2]: 4 survivors of 4 mice; Survivors/Injected mice; i.c.v.; AahII:Nb 1:2; 4 LD50/mouse; 48 ng Nb/mouse [2]: 1 survivors of 4 mice
NbAahII18 (VHH, also called NbAahlllδ; NbAahll l δ) VHH: QVQLQESGGGSVQAGGSLRLSCAASGDSYSNYYMAWFRQAPGKEREGVAHINRSGRITLYADSVKGRFTMSRDNAKNTVYLQMNSLRPEDTAIYYCAAGVRTHMPPLASYGFDYWGQGTQVTVSS		2 survivors of 4 mice	0.18 nM	0.0016 s⁻¹	8.95e+06 M⁻¹ s⁻¹	NC = (LD50 with Nb - LD50 without Nb)/Nb; i.c.v.; AahII:Nb 1:4 [2]: 27000 LD50/mg and 400 LD50/nmol; Survivors/Injected mice; i.c.v.; AahII:Nb 1:2; 3 LD50/mouse; 36 ng Nb/mouse [2]: 1 survivors of 4 mice; Survivors/Injected mice; i.c.v.; AahII:Nb 1:2; 4 LD50/mouse; 48 ng Nb/mouse [2]: 0 survivors of 4 mice; Survivors/Injected mice; i.c.v.; AahII:Nb 1:4; 2 LD50/mouse; 48 ng Nb/mouse [2]: 2 survivors of 4 mice
